For this series, the target named is recombinant His-tagged PLS3 protein (pQE vector) (UniProt Q9NRY6).
recombinant His-tagged PLS3 protein (pQE vector), sequence (Q9NRY6 whole entry): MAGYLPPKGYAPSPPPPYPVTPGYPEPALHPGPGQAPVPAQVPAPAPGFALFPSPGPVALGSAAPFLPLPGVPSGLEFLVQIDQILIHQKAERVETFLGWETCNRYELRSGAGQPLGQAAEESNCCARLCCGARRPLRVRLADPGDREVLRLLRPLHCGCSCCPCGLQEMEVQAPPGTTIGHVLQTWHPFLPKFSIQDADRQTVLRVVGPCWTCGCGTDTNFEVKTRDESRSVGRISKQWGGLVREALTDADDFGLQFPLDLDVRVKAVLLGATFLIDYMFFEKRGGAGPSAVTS

Consider recombinant PKC-δ enzyme (Calbiochem), for which the in vitro phosphorylation entry is “The PLS3 protein was a high-affinity substrate for PKC-δ and the phosphorylation steadily increased over the first 25 minutes”; the km result is “it was determined that the km is 10.5 nM”.

The values are drawn from patent US20060172958.
